Measurements as given in publication PMC5685503.

Biological target: isolated phosphodiesterase (PDE) domain of RhoPDE (Salpingoeca rosetta) (UniProt F2TZN0)
Experiment: SEC

stoichiometry N: 2
Substance: isolated phosphodiesterase (PDE) domain of RhoPDE (from UniProt F2TZN0 386-702) (domain or fragment)
